Laboratory results as given in US20030203372A1, “Analysis method” (priority 2000, published 2003).

Legend:
[1] = tested on: primary human cell cultures (11 cell types); test: Custom gene array, 11 human cell types in normoxia or hypoxia for 6 hr and 18 hr; type: cell-based;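 for mRNA expression level, #1 HY 18 hr: cell type #1 is adipocyte from subcutaneous adult adipose tissue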;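 for mRNA expression level, #1 HY 6 hr: cell type #1 is adipocyte from subcutaneous adult adipose tissue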;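 for mRNA expression level, #1 NO: cell type #1 is adipocyte from subcutaneous adult adipose tissue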;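 for mRNA expression level, #2 HY 18 hr: cell type #2 is fetal cardiomyocyte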;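 for mRNA expression level, #2 HY 6 hr: cell type #2 is fetal cardiomyocyte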;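 for mRNA expression level, #2 NO: cell type #2 is fetal cardiomyocyte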;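 for mRNA expression level, #3 HY 6 hr: cell type #3 is human umbilical vein endothelial cells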;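 for mRNA expression level, #3 NO: cell type #3 is human umbilical vein endothelial cells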;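 for mRNA expression level, #4 HY 18 hr: cell type #4 is adult dermal fibroblast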;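 for mRNA expression level, #4 HY 6 hr: cell type #4 is adult dermal fibroblast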;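 for mRNA expression level, #4 NO: cell type #4 is adult dermal fibroblast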;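 for mRNA expression level, #5 HY 6 hr: cell type #5 is adult hepatocyte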;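 for mRNA expression level, #5 NO: cell type #5 is adult hepatocyte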;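 for mRNA expression level, #6 HY 6 hr: cell type #6 is blood-derived macrophage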;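 for mRNA expression level, #6 NO: cell type #6 is blood-derived macrophage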
In short: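 Eleven primary, unmodified human cell types (one non-primary neuronal type) held in normoxia or hypoxia for 6 hr and 18 hr. RNA hybridised to duplicate or triplicate custom arrays, normalised per array to reference genes. Expression given relative to each gene's median across all conditions.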

[2] = tested on: human macrophages; test: Custom gene array, macrophages with no cytokines, IL-10 or LPS + IFN, in normoxia and hypoxia; type: cell-based; conditions: Table 15, referenced to the median value of that gene throughout all 6 conditions
Protocol: Macrophages were derived and cultured as described elsewhere in the specification. A total of 6 experimental conditions were analysed, as shown below. Where cells were treated with cytokines or hypoxia (0.1% oxygen), this was for 6 hr. Lipopolysaccharide (LPS) (from E.coli 026:B6; Sigma), gamma Interferon (IFN) and Interleukin-10 (IL-10) were all used at a final concentration of 100 ng/ml. The effect of gamma Interferon and Lipopolysaccharide is to activate macrophages, with a Th1 biased phenotype, as found in many inflammatory conditions. Interleukin-10 is a Th2 cytokine and de-activates macrophages, and suppresses their effector functions.

B1: p1E7 (nucleic acid, listed as Homo Sapiens)
DNA: GCTTGAGATCTCCAGCCTTACCGCGGCTCGAAATGGCCCCAACTGCTCCTGCACCACTGGTGTCTCCTGCANCTGCACCGGCTCCTGCAAGTGCAAAGAGTGCAAATGACCTCCTGCAAGAAGAGCTGCTGNNCTGCTGCCCCGTGGTGTGCAAGTGTGCCACGGTGTGTCTGCAAAGGGACGTTGGAGAACTGCAGCTGCTGTNCTGATGTGGGAACAAGCTCTTCTCCCAGATGTTAATAGAACAAGCTGCACAACCTGGGATTTTTTTTCAATACGATACTTGAGCCATTTTCTGCATTTCTTTTTATTGTTAAATATGTGAGTGACAATAAAACAATTTTGACTTTGAATCTTAAAAA
modifications: EST array clone; misc_feature 72, 132, 133, 205: n = A,T,C or G
- mRNA expression level, #1 HY 6 hr ([1]; cell type #1, hypoxia 6 hr): 1.29
- mRNA expression level, #1 HY 18 hr ([1]; cell type #1, hypoxia 18 hr): 1.63
- mRNA expression level, #1 NO ([1]; cell type #1, normoxia): 1.20
- mRNA expression level, #2 HY 6 hr ([1]; cell type #2, hypoxia 6 hr): 0.18
- mRNA expression level, #2 HY 18 hr ([1]; cell type #2, hypoxia 18 hr): 0.22
- mRNA expression level, #2 NO ([1]; cell type #2, normoxia): 0.12
- mRNA expression level, #3 HY 6 hr ([1]; cell type #3, hypoxia 6 hr): 1.03
- mRNA expression level, #3 HY 18 hr ([1]; cell type #3, hypoxia 18 hr): 0.71
- mRNA expression level, #3 NO ([1]; cell type #3, normoxia): 1.40
- mRNA expression level, #4 HY 6 hr ([1]; cell type #4, hypoxia 6 hr): 2.17
- mRNA expression level, #4 HY 18 hr ([1]; cell type #4, hypoxia 18 hr): 2.85
- mRNA expression level, #4 NO ([1]; cell type #4, normoxia): 2.36
- mRNA expression level, #5 HY 6 hr ([1]; cell type #5, hypoxia 6 hr): 6.75
- mRNA expression level, #5 NO ([1]; cell type #5, normoxia): 4.89
- mRNA expression level, #6 HY 6 hr ([1]; cell type #6, hypoxia 6 hr): 1.07
- #6 HY 18 hr (mRNA expression level) ([1]; cell type #6, hypoxia 18 hr): 0.86
- mRNA expression level, #6 NO ([1]; cell type #6, normoxia): 0.08
- #7 HY 6 hr (mRNA expression level) ([1]; cell type #7, hypoxia 6 hr): 2.06
- #7 HY 18 hr (mRNA expression level) ([1]; cell type #7, hypoxia 18 hr): 1.32
- #7 NO (mRNA expression level) ([1]; cell type #7, normoxia): 0.87
- #8 HY 6 hr (mRNA expression level) ([1]; cell type #8, hypoxia 6 hr): 0.75
- #8 HY 18 hr (mRNA expression level) ([1]; cell type #8, hypoxia 18 hr): 1.20
- #8 NO (mRNA expression level) ([1]; cell type #8, normoxia): 0.03
- #9 HY 6 hr (mRNA expression level) ([1]; cell type #9, hypoxia 6 hr): 0.05
- #9 HY 18 hr (mRNA expression level) ([1]; cell type #9, hypoxia 18 hr): 0.04
- #9 NO (mRNA expression level) ([1]; cell type #9, normoxia): 0.04
- #10 HY 6 hr (mRNA expression level) ([1]; cell type #10, hypoxia 6 hr): 2.60
- #10 HY 18 hr (mRNA expression level) ([1]; cell type #10, hypoxia 18 hr): 3.60
- #10 NO (mRNA expression level) ([1]; cell type #10, normoxia): 3.09
- #11 HY 6 hr (mRNA expression level) ([1]; cell type #11, hypoxia 6 hr): 0.70
- #11 HY 18 hr (mRNA expression level) ([1]; cell type #11, hypoxia 18 hr): 0.74
- #11 NO (mRNA expression level) ([1]; cell type #11, normoxia): 0.60
- HIGHEST FOLD CHANGE IN HYPOXIA (hr hypoxia + cell type) ([1]; hypoxia/normoxia induction ratio, 18 hr monocyte): 37.9 (18 hr monocyte) fold
- mRNA EXPRESSION (experimental condition) #1 ([2]; #1 no cytokines/normoxia): 0.49
- mRNA EXPRESSION (experimental condition) #2 ([2]; #2 no cytokines/hypoxia): 1.26
- mRNA EXPRESSION (experimental condition) #3 ([2]; #3 IL-10/normoxia): 0.70
- mRNA EXPRESSION (experimental condition) #4 ([2]; #4 IL-10/hypoxia): 1.11
- mRNA EXPRESSION (experimental condition) #5 ([2]; #5 LPS/IFN/normoxia): 1.32
- mRNA EXPRESSION (experimental condition) #6 ([2]; #6 LPS/IFN/hypoxia): 2.89
